Test system: DIO C57BL/6J mice
Assay: Enho 1 ip for 7 days in DIO C57BL/6J mice (Examples 23-25)
Format: in vivo, mouse
Protocol: (§1) The effect of Enho-1 upon weight loss was tested over the course of 7 days using DIO C57BL/6J mice (Charles River Laboratories). The mice were fed a high fat diet (Research Diets 12492) for 10 weeks prior to the start of the experiment, which was begun when the mice were 15-16 weeks of age. Control mice received vehicle only while test mice each received doses of either 90 nmol/kg/d, 900 nmol/kg/d or 9000 nmol/kg/d. The injections were given as 3 ip injections at 0800, 1200 and 1600 h for 7 days. On day 8, the mice were given the 0800 h injection and were sacrificed 1-3 h later.
as §1, with “insulin and glucose” for “weight loss”, “later at which time blood samples were collected and levels of insulin and glucose determined.” for “later.”
The HOMA-IR for each treatment was calculated using the following formula: ((glucose mg/dL÷18)×(insulin ng/ml×25.05))÷22.5
as §1, with “levels of blood lipids” for “weight loss”, “later at which time blood samples were collected and levels of trigylcerides determined. Triglycerides were measured using a Triglyceride L-Type TG H kit (Wako Diagnostics).” for “later.”

[1] = 90 nmol/kg/d ip, listed as Enho-1
[2] = 900 nmol/kg/d ip, listed as Enho-1
[3] = 9000 nmol/kg/d ip, listed as Enho-1

B1: Enho 1: human Enho 1, a 76 amino acid peptide having the sequence SEQ ID NO: 14 (peptide, listed as Homo sapiens)
chain: MGAAISQGALIAIVCNGLVGFLLLLLWVILCWACHSRSADVDSLSESSPNSSPGPCPEKAPPPQKPSHEGSYLLQP
Q: With B1 as the molecule, how does the Blood glucose (90 nmol/kg/d ip) read?
A: 182 mg/dL

Q: And the Delta body weight (90 nmol/kg/d ip)?
A: 6.6%

Q: And the HOMA-IR (90 nmol/kg/d ip)?
A: 15

Q: And the “HOMA-IR decrease as compared to the control group” value (from here on “HOMA-IR decrease”) (90 nmol/kg/d ip)?
A: 15%

Q: What about the Insulin (90 nmol/kg/d ip) of the same molecule?
A: 1.3 ng/mL

Q: And the “TG (blood triglyceride level)” value (90 nmol/kg/d ip)?
A: 22.5 mg/dL

Q: What about the “Weight (pre-treatment)” value (90 nmol/kg/d ip) of the same molecule?
A: 36.5 g

Q: And the “Weight (termination)” value (90 nmol/kg/d ip)?
A: 34.0 g

Q: What about the Blood glucose [1] of the same molecule?
A: 182 ± 17 mg/dL

Q: What about the HOMA-IR [1] of the same molecule?
A: 15 ± 2

Q: And the “HOMA-IR decrease” value [1]?
A: (↓ 32%)

Q: And the Insulin [1]?
A: 1.3 ± 0.1 ng/mL

Q: And the “TG (blood triglyceride level)” value [1]?
A: 22.5 ± 6.0 mg/dL

Q: What about the “Weight (pre-treatment)” value [1] of the same molecule?
A: 36.5 ± 1.3 g

Q: And the “Weight (termination)” value [1]?
A: 34.0 ± 1.0 g

Q: What about the Blood glucose (900 nmol/kg/d ip) of the same molecule?
A: 212 mg/dL

Q: What about the Delta body weight (900 nmol/kg/d ip) of the same molecule?
A: 7.1%

Q: And the HOMA-IR (900 nmol/kg/d ip)?
A: 29

Q: And the “HOMA-IR decrease” value (900 nmol/kg/d ip)?
A: 29%

Q: And the Insulin (900 nmol/kg/d ip)?
A: 2.2 ng/mL

Q: And the “TG (blood triglyceride level)” value (900 nmol/kg/d ip)?
A: 38.0 mg/dL

Q: And the “Weight (pre-treatment)” value (900 nmol/kg/d ip)?
A: 37.9 g

Q: And the “Weight (termination)” value (900 nmol/kg/d ip)?
A: 36.0 g

Q: And the Blood glucose [2]?
A: 212 ± 11 mg/dL

Q: And the HOMA-IR [2]?
A: 29 ± 4

Q: What about the Insulin [2] of the same molecule?
A: 2.2 ± 0.3 ng/mL

Q: And the “TG (blood triglyceride level)” value [2]?
A: 38.0 ± 12.5 mg/dL

Q: What about the “Weight (pre-treatment)” value [2] of the same molecule?
A: 37.9 ± 1.4 g

Q: What about the “Weight (termination)” value [2] of the same molecule?
A: 36.0 ± 1.2 g

Q: And the Blood glucose (9000 nmol/kg/d ip)?
A: 190 mg/dL

Q: And the Delta body weight (9000 nmol/kg/d ip)?
A: 6.7%

Q: What about the HOMA-IR (9000 nmol/kg/d ip) of the same molecule?
A: 16

Q: What about the “HOMA-IR decrease” value (9000 nmol/kg/d ip) of the same molecule?
A: 27%

Q: What about the Insulin (9000 nmol/kg/d ip) of the same molecule?
A: 1.3 ng/mL

Q: What about the “TG (blood triglyceride level)” value (9000 nmol/kg/d ip) of the same molecule?
A: 18.5 mg/dL

Q: What about the “TG decrease from the control” value (9000 nmol/kg/d ip) of the same molecule?
A: 19%

Q: What about the “Weight (pre-treatment)” value (9000 nmol/kg/d ip) of the same molecule?
A: 33.8 g

Q: What about the “Weight (termination)” value (9000 nmol/kg/d ip) of the same molecule?
A: 31.6 g

Q: And the Blood glucose [3]?
A: 190 ± 16 mg/dL

Q: And the HOMA-IR [3]?
A: 16 ± 4

Q: And the “HOMA-IR decrease” value [3]?
A: (↓ 27%)

Q: And the Insulin [3]?
A: 1.3 ± 0.2 ng/mL

Q: What about the “TG (blood triglyceride level)” value [3] of the same molecule?
A: 18.5 ± 1.7 mg/dL

Q: And the “TG decrease from the control” value [3]?
A: (↓ 19%)

Q: What about the “Weight (pre-treatment)” value [3] of the same molecule?
A: 33.8 ± 0.8 g

Q: What about the “Weight (termination)” value [3] of the same molecule?
A: 31.6 ± 0.7 g
